In US20200308288A1 (OSE IMMUNOTHERAPEUTICS, published 2020):
Residue numbers refer to the chain shown, from its start.

B1: Effi3-VH3VL4 (antibody, human IgG1, kappa, V domains shown)
VH: AVQLVESGGGLVQPGGSLKITCAASGFTFTNAAMYWVRQAPGKGLEWVARIRTKANNYATYYADSVKGRFTISRDDSKSTVYLQMDSVKTEDTATYYCIVVVLTTTRDYFDYWGQGVLVTVSS
VL: DIVLTQSPSSLPVTPGEPASISCRSSQDLLTVKGITSLYWFLQKPGQSPKLLIYRMSNRDSGVPDRFSGSGSGTDFTLKISRVEAEDVGTYYCAQFLEYPHTFGAGTKLELKR
notes: Humanized from rat MD707-3; also called Effi3 H3L4; VHvar3+VLvar4
B2: Effi3-VH3VL3 (antibody, human IgG1, kappa, V domains shown)
VH: B1 VH
VL: B1 VL with D28S, G73E
notes: Humanized from rat MD707-3; They are built here from the variable and constant entries so that the signal peptide is left out; also called Effi3 H3L3; VHvar3+VLvar3
B3: MD707-3 (antibody, V domains shown)
VH: AVHLVESGGGLVQPKESLKISCAASGFTFSNAAMYWVRQAPGKGLEWVARIRTKANNYATYYAESVKGRFTISRDDSKSMVYLQMDNVKTDDTAMYYCIVVVLTTTRDYFDYWGQGVMVTVSS
VL: DIVLTQAPLSVSVTPGESASISCRSSQSLLTVKGITSLYWFLQKPGKSPQLLIYRMSNLASGVPDRFRGSGSETDFTLKISKVETEDVGVYYCAQFLEYPHTFGAGTKLELKR
notes: Rat anti-human CD127 antibody; also called MD707-3 chimeric antibody; MD707-3 mAb

Assays:
[1] = target: T1, recombinant hCD127 (Sino Biologicals, reference 10975-H08H) (human, UniProt P16871 21-239); test: ELISA, recombinant hCD127 immobilised at 1 µg/ml, purified antibody
T1 construct: also called rCD127; CD127 protein
T1 chain: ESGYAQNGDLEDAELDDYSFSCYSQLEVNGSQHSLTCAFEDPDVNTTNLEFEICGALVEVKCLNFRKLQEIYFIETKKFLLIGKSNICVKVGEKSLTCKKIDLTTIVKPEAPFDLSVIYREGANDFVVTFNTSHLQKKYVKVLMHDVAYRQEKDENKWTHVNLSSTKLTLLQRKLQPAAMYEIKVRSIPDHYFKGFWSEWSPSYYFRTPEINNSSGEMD
Procedure: The binding activity of the anti hCD127 antibody was assessed by ELISA (Enzyme-linked immunosorbent assay). For the ELISA assay, recombinant hCD127 (Sino Biologicals, Beijing, China; reference 10975-H08H) was immobilized on plastic at 1μg/ml and purified antibody were added to measure binding.

[2] = target: T1, recombinant hCD127 (Sino Biologicals, …); test: ELISA on immobilised recombinant hCD127 (1 µg/ml) after storage under different conditions
Procedure: Humanized Effi3 antibody (clone VH3VL4) was incubated at 4° C., 37° C., at −80° C. or at room Temperature for 28 days. The binding activity was tested by ELISA assay, recombinant hCD127 (Sino Biologicals, Beijing, China; reference 10975-H08H) was immobilized on plastic at 1 μg/ml and dilutions of supernatant were added to measure binding. […] Increase doses of Mabs were added to measure binding.

Binder | EC50 [1] [ng/mL] | EC50 (read off the curve) [2] [ng/mL]
B1 | 4 | ~6
B2 | 4 | –
B3 | 3.4 | –
